Test results published in patent publication US20190046655A1 (ARBELE, published 2019).

Target: T1, cadherin-17 (CDH17), ELISA antigen (UniProt Q12864 23-787, limits assumed)
T1 construct: also called liver-intestine cadherin
Assay: ELISA

Kd [nM]	Binder
11.9	Lic3 scFv (scFv, V domains shown, Tested as a single-chain Fv; also called scFv lic 3; mouse CDH17 antibody Lic3 scFv) VH: EVQLVESGGGLVKPGGSLKLSCAASGFSFSDYYMYWVRQAPEKRLEWVASISFDGTYTYYTDRVKGRFTISRDNAKNNLYLQMSSLKSEDTAMYYCARDRPAWFPYWGQGTLVTVSA VL: DVLMTQIPLSLTVSLGDQASISCRSSQSIVHSNGNTYLEWYLQRPGQSPKLLIYKVSNRFSGVPDRFSGSGSGTDFTLKISRVEAEDLGVYYCFQGSHVPLTFGAGTKLELK
22.1	Lic5 scFv (scFv, V domains shown, Tested as a single-chain Fv; also called scFv lic5; mouse CDH17 antibody Lic5 scFv) VH: EVQLEESGGGLVKPGGSLKLPCAASGSSFSDFYMYWVRQTPEKRLEWVASISFDGTYTYYTDRVKGRFTISRDNAKNNLYLQMSSLKSEDTAMYYCARDRPAWFPYWGQGTLVTVSA VL: DIVLTQTTLSLNVSLGDQASISCRSSQSIVHSNGNTYLEWYLQRPGQSPKLLIYKVSNRFSGVPDRFSGSGSGTDFTLKISRVEAEDLGVYYCFQGSHVPLTFGAGTKLELKR
